The source of these data is patent US20250205329A1.

Assay in all cases: BLI (Gator), antibody on protein A probe, F mutant supernatant held 1 h at 60° C.
Assay [1] deals with DS-CavI (positive control) RSV F protein.
For assay [2], the target named is SC-TM (positive control) RSV F protein.
Assay [3] deals with RSV F protein mutant YK001Ag404 (RSV A) (RSV A) (UniProt P11209).
Assay [4] has as its target RSV F protein mutant YK001Ag222 (RSV A) (UniProt P12568).
Assay [5] addresses RSV F protein mutant YK001Ag402 (RSV A) (UniProt P12568).
Assay [6] addresses RSV F protein mutant YK001Ag406 (RSV A) (RSV A) (UniProt P11209).
In assay [7] the target is RSV F protein mutant YK001Ag410 (AHV80758, RSV B) (RSV B).
Assay [8] has as its target RSV F protein mutant YK001Ag401 (RSV A) (RSV A) (UniProt P11209).
Assay [9] has as its target RSV F protein mutant YK001Ag403 (RSV A) (UniProt P12568).
Assay [10] concerns the target RSV F protein mutant YK001Ag399 (RSV A) (RSV A) (UniProt P11209).
In assay [11] the target is RSV F protein mutant YK001Ag407 (RSV A) (RSV A) (UniProt P11209).
In assay [12] the target is RSV F protein mutant YK001Ag411 (AVQ93588.1, RSV B) (RSV B).
Assay [13] has as its target RSV F protein mutant YK001Ag400 (RSV A) (UniProt P12568).

For the substance monoclonal antibody AM14, the Activity of antibody AM14 after 1 h at 60° C. (%) in [1] was 9.9%; in [2], 1.3%; in assay [3] it was 60.9%; in [4] it was 1.1%; in assay [5], 28.6%; in assay [6], 45.5%. The Activity of antibody AM14 after 1 h at 60° C. (%) in [7] is 67.7%; in assay [8], 2.2%; in [9] it was 81%; in [10] it was 99.8%; in assay [11], 52.6%; in [12], 69.5%. For the same substance, the Activity of antibody AM14 after 1 h at 60° C. (%) in assay [13] worked out at 1.4%.
As for monoclonal antibody D25, the Activity of antibody D25 after 1 h at 60° C. (%) came to 103% in [1]; 21% in assay [2]; 75.4% in assay [3]; 5.8% in assay [4]; 84% in assay [5]; 60.4% in assay [6]. Besides, the Activity of antibody D25 after 1 h at 60° C. (%) in assay [7] was 88.7%; in [8] it was 20.8%; in [9], 89.7%; in [10], 80.8%; in assay [11], 77.2%; in assay [12] it was 91.4%. The substance also yielded an Activity of antibody D25 after 1 h at 60° C. (%) in [13] of 15.6%.
